Laboratory results taken from publication doi:10.1101/2025.06.14.659634 (bioRxiv, 2025).

Legend:
[1] = target: the molecule itself; test: glycerol density gradient centrifugation
cryo-EM structure = target: the molecule itself; test: cryo-EM structure

Protein	binding result [1]	binding result (cryo-EM structure)
erlin2 with a C-terminal Flag tag, overexpressed alone (natural protein, human, UniProt O94905 1-339, looked up) MAQLGAVVAVASSFFCASLFSAVHKIEEGHIGVYYRGGALLTSTSGPGFHLMLPFITSYKSVQTTLQTDEVKNVPCGTSGGVMIYFDRIEVVNFLVPNAVYDIVKNYTADYDKALIFNKIHHELNQFCSVHTLQEVYIELFDQIDENLKLALQQDLTSMAPGLVIQAVRVTKPNIPEAIRRNYELMESEKTKLLIAAQKQKVVEKEAETERKKALIEAEKVAQVAEITYGQKVMEKETEKKISEIEDAAFLAREKAKADAECYTAMKIAEANKLKLTPEYLQLMKYKAIASNSKIYFGKDIPNMFMDSAGSVSKQFEGLADKLSFGLEDEPLETATKEN	binds	–
erlin1 with a C-terminal Flag tag, overexpressed alone (natural protein, human, UniProt O75477 1-348, looked up) MNMTQARVLVAAVVGLVAVLLYASIHKIEEGHLAVYYRGGALLTSPSGPGYHIMLPFITTFRSVQTTLQTDEVKNVPCGTSGGVMIYIDRIEVVNMLAPYAVFDIVRNYTADYDKTLIFNKIHHELNQFCSAHTLQEVYIELFDQIDENLKQALQKDLNLMAPGLTIQAVRVTKPKIPEAIRRNFELMEAEKTKLLIAAQKQKVVEKEAETERKKAVIEAEKIAQVAKIRFQQKVMEKETEKRISEIEDAAFLAREKAKADAEYYAAHKYATSNKHKLTPEYLELKKYQAIASNSKIYFGSNIPNMFVDSSCALKYSDIRTGRESSLPSKEALEPSGENVIQNKESTG	binds	–
erlin1 fused with a twin-Strep tag, co-expressed with erlin2 through a P2A sequence (natural protein, human, UniProt O75477 1-348, looked up, N108 glycosylated (seen in the density map); intramolecular disulfide bond C78-C130) MNMTQARVLVAAVVGLVAVLLYASIHKIEEGHLAVYYRGGALLTSPSGPGYHIMLPFITTFRSVQTTLQTDEVKNVPCGTSGGVMIYIDRIEVVNMLAPYAVFDIVRNYTADYDKTLIFNKIHHELNQFCSAHTLQEVYIELFDQIDENLKQALQKDLNLMAPGLTIQAVRVTKPKIPEAIRRNFELMEAEKTKLLIAAQKQKVVEKEAETERKKAVIEAEKIAQVAKIRFQQKVMEKETEKRISEIEDAAFLAREKAKADAEYYAAHKYATSNKHKLTPEYLELKKYQAIASNSKIYFGSNIPNMFVDSSCALKYSDIRTGRESSLPSKEALEPSGENVIQNKESTG	–	binds
